From patent US9062353B2, “Electrically conductive polymer electrodes with incorporated viruses” (THE REGENTS OF THE UNIVERSITY OF CALIFORNIA, priority 2010, dated 2015)

What was measured:
Details in all cases: phage-displayed peptide
PSMA dimer = biological target: T1, PSMA dimer (Homo sapiens, UniProt Q04609); experiment: phage-based ELISA, binding to PSMA dimer
T1 construct: purchased Molecular Express, Inc
Experimental: (§1) A Nunc Maxisorp plate was coated with 10 μg/mL PSMA monomer or dimer protein for 1 h. The coating solution was removed, and the plate was blocked for 1 h with 0.2% BSA in PBS and washed 5 times with PT (300 μL/well). The wells were then incubated with phage displaying PSMA-binding peptides (100 μL/well) at the indicated concentrations for 1 h. After washing five times with PT, the plate was incubated with HRP-conjugated anti-M13 phage antibody (100 μL, 1:5000) in 0.1% PBT buffer for 30 min, and washed three times with PT, and twice with PBS. The plate was then developed using an o-phenylenediamine dihydrochloride/H2O2 solution (100 μL, 1 mg mL-1/0.02%) in citric acid buffer (50 mM citric acid, 50 mM Na2HPO4, pH 5.0), and the HRP activity was measured as absorbance at 450 nm.
The previously reported PSMA binding peptides, PSMA-1 (amino acid sequence, […] (SEQ ID NO:3)) and PSMA-2 (amino acid sequence, […] (SEQ ID NO:4)), were compared for affinity to the homodimeric and monomeric isoforms of PSMA. Details regarding PSMA-1 and PSMA-2 may be found in Yang, L. M. et al., Anal. Chem. 2006, 78, 3265-3270, which is incorporated by reference herein. Though diagnostically irrelevant, the monomeric isoform of PSMA provides a control for the binding specificity. […] Chosen for its specificity to the PSMA dimer, the PSMA-2 sequence provided the template for an affinity maturation library targeting the PSMA dimer.

PSMA monomer = biological target: T2, PSMA monomer (Homo sapiens, UniProt Q04609); experiment: phage-based ELISA, binding to PSMA monomer
T2 construct: purchased Molecular Express, Inc
Experimental: as §1
The previously reported PSMA binding peptides, PSMA-1 (amino acid sequence, […] (SEQ ID NO:3)) and PSMA-2 (amino acid sequence, […] (SEQ ID NO:4)), were compared for affinity to the homodimeric and monomeric isoforms of PSMA. Details regarding PSMA-1 and PSMA-2 may be found in Yang, L. M. et al., Anal. Chem. 2006, 78, 3265-3270, which is incorporated by reference herein. Though diagnostically irrelevant, the monomeric isoform of PSMA provides a control for the binding specificity. […]

TfR = TfR (Homo sapiens, UniProt P02786); experiment: binding specificity, transferrin receptor
casein = experiment: binding specificity, casein

T1 sequence (Q04609 whole entry): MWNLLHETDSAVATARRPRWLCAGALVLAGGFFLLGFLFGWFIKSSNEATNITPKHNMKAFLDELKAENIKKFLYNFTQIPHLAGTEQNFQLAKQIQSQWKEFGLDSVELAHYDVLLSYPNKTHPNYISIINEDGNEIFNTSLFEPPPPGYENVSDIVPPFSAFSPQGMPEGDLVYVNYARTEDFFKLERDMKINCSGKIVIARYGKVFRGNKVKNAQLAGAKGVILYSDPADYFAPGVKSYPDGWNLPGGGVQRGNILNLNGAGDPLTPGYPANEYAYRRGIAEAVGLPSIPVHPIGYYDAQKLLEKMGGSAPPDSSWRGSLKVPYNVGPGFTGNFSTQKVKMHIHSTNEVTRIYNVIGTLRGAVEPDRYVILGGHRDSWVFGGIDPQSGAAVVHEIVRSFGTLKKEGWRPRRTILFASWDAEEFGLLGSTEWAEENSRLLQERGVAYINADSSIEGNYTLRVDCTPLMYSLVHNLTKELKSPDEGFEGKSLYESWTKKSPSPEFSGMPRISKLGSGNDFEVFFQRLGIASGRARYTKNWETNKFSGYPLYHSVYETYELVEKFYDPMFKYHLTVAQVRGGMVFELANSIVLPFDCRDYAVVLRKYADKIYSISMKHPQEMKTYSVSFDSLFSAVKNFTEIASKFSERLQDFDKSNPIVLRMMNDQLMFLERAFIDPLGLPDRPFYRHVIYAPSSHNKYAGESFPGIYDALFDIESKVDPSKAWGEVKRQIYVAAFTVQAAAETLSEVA
T2 sequence (Q04609 whole entry): as above
Sequence of TfR (P02786 whole entry, species assumed): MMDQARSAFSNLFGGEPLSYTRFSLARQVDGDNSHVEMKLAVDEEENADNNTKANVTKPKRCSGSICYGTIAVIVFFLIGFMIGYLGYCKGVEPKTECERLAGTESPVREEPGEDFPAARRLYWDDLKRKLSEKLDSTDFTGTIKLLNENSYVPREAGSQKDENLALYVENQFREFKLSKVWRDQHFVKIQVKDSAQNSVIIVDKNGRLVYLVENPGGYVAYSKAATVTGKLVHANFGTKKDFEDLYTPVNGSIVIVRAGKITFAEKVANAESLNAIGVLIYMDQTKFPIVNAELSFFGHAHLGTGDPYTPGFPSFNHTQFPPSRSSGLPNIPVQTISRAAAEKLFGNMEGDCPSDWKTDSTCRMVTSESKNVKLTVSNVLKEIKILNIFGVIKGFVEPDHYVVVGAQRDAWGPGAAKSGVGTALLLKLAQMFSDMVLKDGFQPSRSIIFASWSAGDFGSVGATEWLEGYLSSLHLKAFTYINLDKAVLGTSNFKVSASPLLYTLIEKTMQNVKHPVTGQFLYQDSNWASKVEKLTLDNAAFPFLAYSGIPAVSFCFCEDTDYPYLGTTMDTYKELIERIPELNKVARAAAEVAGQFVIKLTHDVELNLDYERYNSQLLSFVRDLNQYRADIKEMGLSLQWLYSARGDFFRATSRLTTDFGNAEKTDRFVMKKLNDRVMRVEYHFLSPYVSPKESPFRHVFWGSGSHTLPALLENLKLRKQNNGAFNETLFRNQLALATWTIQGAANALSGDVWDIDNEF

Row | Sequence | binding to PSMA dimer (PSMA dimer) | binding to PSMA monomer (PSMA monomer) | binding to TfR (TfR) | binding to casein (casein)
1 | CALCEFLG (displayed on M13 phage) [PSMA-1] | binds to both isoforms of PSMA | binds to both isoforms of PSMA |  | 
2 | LDCVEVFQNSCDW (displayed on M13 phage) [PSMA-2] | binds with high affinity and specificity to the PSMA dimer |  |  | 
3 | SECVEVFQNSCDW (displayed on M13 phage) [PSMA-3] | specific binding for the PSMA dimer | not PSMA monomer | not | not
